How the values were obtained:
native gel or EMSA = biological target: the molecule itself; test: native gel or EMSA
SEC = biological target: the molecule itself; test: SEC

| Protein | stoichiometry N (native gel or EMSA) | stoichiometry N (SEC) |
| --- | --- | --- |
| glutaryl-CoA dehydrogenase (GCDH), mouse liver mitochondria (enzyme, mouse (endogenous in liver mitochondria), UniProt Q60759 45-438, looked up) RPVFDWKDPLILEEQLTADEKLIRDTFRNYCQERLMSRILLANRNEVFHRDIVYEMGELGVLGPTIKGYGCAGVSSVAYGLLTRELERVDSGYRSMMSVQSSLVMHPIYTYGSEEQRQKYLPGLAKGELLGCFGLTEPNHGSDPGGMETRARHNPSNQSYTLSGTKTWITNSPVADLFIVWARCEDNCIRGFILEKGMRGLSAPRIEGKFSLRASATGMIIMDSVEVPEENVLPNVSSLAGPFGCLNTARYGITWGVLGAAEFCLHTARQYALDRIQFGVPLARNQLVQKKLADMLTEITLGLHACLQLGRLKDQDKATPEMVSMLKRNNCGKALDIARQARDILGGNGISDEYHVIRHAMNLEAVNTYEGTHDIHALILGRAITGIQAFTVGK | 4 | – |
| recombinant human GCDH, unmodified (hGCDH-6xHIS) (enzyme, UniProt Q92947 45-438, looked up) RPEFDWQDPLVLEEQLTTDEILIRDTFRTYCQERLMPRILLANRNEVFHREIISEMGELGVLGPTIKGYGCAGVSSVAYGLLARELERVDSGYRSAMSVQSSLVMHPIYAYGSEEQRQKYLPQLAKGELLGCFGLTEPNSGSDPSSMETRAHYNSSNKSYTLNGTKTWITNSPMADLFVVWARCEDGCIRGFLLEKGMRGLSAPRIQGKFSLRASATGMIIMDGVEVPEENVLPGASSLGGPFGCLNNARYGIAWGVLGASEFCLHTARQYALDRMQFGVPLARNQLIQKKLADMLTEITLGLHACLQLGRLKDQDKAAPEMVSLLKRNNCGKALDIARQARDMLGGNGISDEYHVIRHAMNLEAVNTYEGTHDIHALILGRAITGIQAFTASK | – | 4 |
| chemically succinylated recombinant human GCDH (succinyl-GCDH) (enzyme, UniProt Q92947 45-438, looked up, succinyl-lysine, 11 sites found by LC-MS/MS (sites shown in Supporting Figure 2G, not given)) RPEFDWQDPLVLEEQLTTDEILIRDTFRTYCQERLMPRILLANRNEVFHREIISEMGELGVLGPTIKGYGCAGVSSVAYGLLARELERVDSGYRSAMSVQSSLVMHPIYAYGSEEQRQKYLPQLAKGELLGCFGLTEPNSGSDPSSMETRAHYNSSNKSYTLNGTKTWITNSPMADLFVVWARCEDGCIRGFLLEKGMRGLSAPRIQGKFSLRASATGMIIMDGVEVPEENVLPGASSLGGPFGCLNNARYGIAWGVLGASEFCLHTARQYALDRMQFGVPLARNQLIQKKLADMLTEITLGLHACLQLGRLKDQDKAAPEMVSLLKRNNCGKALDIARQARDMLGGNGISDEYHVIRHAMNLEAVNTYEGTHDIHALILGRAITGIQAFTASK | – | 4 |

From paper doi:10.1101/2020.06.28.176677 (bioRxiv, 2020)
